Test results: PMC6218473, “Recognition of host Clr-b by the inhibitory NKR-P1B receptor provides a basis for missing-self recognition” (Nature Communications, 2018)

B1: NKR-P1B tetramers (biotinylated NKR-P1B on streptavidin) [modified: biotin on the BirA tag; biotin on the BirA tag] [mouse] / Clr-b on transfected HEK293T cells [mouse] (parent)
chain 1: SAKLECPQDWLSHRDKCFHVSQVSNTWKECRIDCDKKGATLLLIQDQEELRFLLDSIKEKYNSFWIGLSYTLTDMNWKWINGTAFNSDVLKITGVTENGSCAAISGEKVTSEGCSSDNRWICQKELN
chain 2: MCVTKASLPMLSPTGSPQEVEVGKILQGKRHGTISPESCAKLYCYYGVIMVLTVAVIALSVALSATKTEQIPVNKTYAACPQNWIGVENKCFYFSEYPSNWTFAQAFCMAQEAQLARFDNQDELNFLMRYKANFDSWIGLHRESSEHPWKWTDNTEYNNTIPIRGEERFAYLNNNGISSTRIYSLRMWICSKLNSYSLHCQTPFFPS

Variants of: B1
Test: flow cytometry on cells (PE-tetramer staining)
Settings: with Clr-b on transfected HEK293T cells [mouse]; HEK293T cells stained 48 h after transfection with Clr-b pIRES2-EGFP; parent: 3.14e+03

Variant	response [MFI]
chain 1 SAKLECPQDWLSHRDKCFHVSQVSNTWKECRIDCDKKGATLLLIQDQEELRFLLDSIKEKYNSFWIGLSYTLTDMNWKWINGTAFNSDVLKITGVTENGSCAAISGEKVTSEGCSSDARWICQKELN	213
chain 1 SAKLECPQDWLSHRDKCFHVSQVSNTWKECRIDCDKKGATLLLIQDQEELRFLLDSIKEKYASFWIGLSYTLTDMNWKWINGTAFNSDVLKITGVTENGSCAAISGEKVTSEGCSSDNRWICQKELN	4880
chain 1 SAKLECPQDWLSHRDKCFHVSQVSNTWKECRIDCDKKGATLLLIQDQEELRFLLDSIKEKYNSFWIGLSYTLTDMNWKWINGTAFNSDVLKITGVTENGSCAAISGEKVTSEGCSSANRWICQKELN	232
chain 1 SAKLECPQDWLSHRDKCFHVSQVSNTWKECRIDCDKKGATLLLIQDQEELRFLLDSIKEKYNSFWIGLSYTLTAMNWKWINGTAFNSDVLKITGVTENGSCAAISGEKVTSEGCSSDNRWICQKELN	212
chain 1 SAKLECPQDWLSHRDKCFHVSQVSNTWKECRIDCDKKGATLLLIQDQEELRFLLDSIKEKYNSFWIGLSYTLTDMNWKWINGTAFNSDVLKITGVTENGSCAAISGEKVTSEGCSSDNAWICQKELN	238
chain 1 SAKLECPQDWLSHRDKCFHVSQVSATWKECRIDCDKKGATLLLIQDQEELRFLLDSIKEKYNSFWIGLSYTLTDMNWKWINGTAFNSDVLKITGVTENGSCAAISGEKVTSEGCSSDNRWICQKELN	5680
chain 1 SAKLECPQDWLSHRDKCFHVSQVSNTWKECRIDCDKKGATLLLIQDQEELRFLLDSIKEKYNSFWIGLSYTLTDMNWKWINGTAFNSDVLKITGVTENGSCAAISGEKVTSAGCSSDNRWICQKELN	269

Continued, values first:

response [MFI]	Variant
5900	chain 1 SAKLECPQDWLSHRDKCFHVSQVSNTWKECRIDCDKKGATLLLIQDQEELRFLLDSIKEKYNSFWIGLSYTLTDMNWKWINGTAFNSDVLKITGATENGSCAAISGEKVTSEGCSSDNRWICQKELN
346	chain 1 SAKLECPQDWLSHRDKCFHVSQVSNTWKECRIDCDKKGATLLLIQDQEELRFLLDSIKEKANSFWIGLSYTLTDMNWKWINGTAFNSDVLKITGVTENGSCAAISGEKVTSEGCSSDNRWICQKELN
178	chain 1 SAKLECPQDWLSHRDKCFHVSQVSNTWKECRIDCDKKGATLLLIQDQEELRFLLDSIKEKYNSFWIGLSYTLTDMNWKWINGTAFNSDVLKITGVTENGSCAAISGEKVTSEGCASDNRWICQKELN
217	chain 1 SAKLECPQDWLSHRDKCFHVSQVSNTWKECRIDCDKKGATLLLIQDQEELRFLLDSIKEKYNSFWIGLSYTLTDMNWKWINGTAFNSDVLKITGVTENGACAAISGEKVTSEGCSSDNRWICQKELN
208	chain 1 SAKLECPQDWLSHRDKCFHVSQVSNTWKECRIDCDKKGATLLLIQDQEELRFLLDSIKEKYNSFWIGLSYTLTDMNWKWINGTAFNSDVLKITGVAENGSCAAISGEKVTSEGCSSDNRWICQKELN
229	chain 1 SAKLECPQDWLSHRDKCFHVSQVSNTWKECRIDCDKKGATLLLIQDQEELRFLLDSIKEKYNSFWIGLSYTLTDMNWKWINGTAFNSDVLKITGVTENGSCAAISGEKVTAEGCSSDNRWICQKELN
211	chain 1 SAKLECPQDWLSHRDKCFHVSQVSNTWKECRIDCDKKGATLLLIQDQEELRFLLDSIKEKYNSFWIGLSYTLTDMNWKWINGTAFNSDVLKITGVTENGSCAAISGEKVTSEGCSADNRWICQKELN
198	chain 1 SAKLECPQDWLSHRDKCFHVSQVSNTWKECRIDCDKKGATLLLIQDQEELRFLLDSIKEKYNSFWIGLSYTLTDMNWKWINGTAFNSDVLKITGVTENGSCAAISGEKVTSEGCSRDNRWICQKELN
